According to patent US20210301005A1 (Genentech, published 2021):

What was measured:
[1] = biological target: human TGFβ1, mature receptor-binding domain (human, UniProt P01137 279-390); assay: cell-based or functional assay
[2] = biological target: T1, human TGFβ2, mature receptor-binding domain (human, UniProt P09858 303-414 (pig entry), The mature TGFβ2 is a disulfide-linked homodimer of this 112-residue chain. The 4A11 epitope spans both monomers (p-1207).); assay: cell-based or functional assay
T1 sequence: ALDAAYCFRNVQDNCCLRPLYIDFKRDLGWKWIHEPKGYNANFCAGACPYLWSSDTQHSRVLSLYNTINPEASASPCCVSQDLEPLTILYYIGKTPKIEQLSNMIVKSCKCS

[3] = biological target: T2, human TGFβ3, mature dimeric form (human, UniProt P10600 301-412); assay: cell-based or functional assay
T2 sequence: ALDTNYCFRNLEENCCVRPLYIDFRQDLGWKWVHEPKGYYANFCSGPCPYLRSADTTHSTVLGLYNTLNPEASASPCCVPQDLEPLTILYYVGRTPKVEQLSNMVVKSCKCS

[4] = biological target: T3, mouse TGFβ2, mature peptide (mouse, UniProt P27090 303-414); assay: cell-based or functional assay
T3 sequence (looked up): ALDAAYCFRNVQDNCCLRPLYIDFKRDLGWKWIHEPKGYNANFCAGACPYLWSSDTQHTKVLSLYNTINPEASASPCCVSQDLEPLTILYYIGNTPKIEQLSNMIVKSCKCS

[5] = biological target: T1, human TGFβ2, mature receptor-binding …; assay: cell-based or functional assay; remark: listed apart in the source
[6] = biological target: T1, human TGFβ2, mature receptor-binding …; assay: BIAcore T200
Procedure, shortened: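 Humanized antibodies captured on protein A CM5 chip (~100 RU), then 3-fold serial dilutions of TGFβ (0.02–5 nM) injected in HBS-EP pH 7.4 at 25° C., 50 μl/min. kon and koff from 1:1 Langmuir fit; KD = koff/kon.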

[7] = biological target: T1, human TGFβ2, mature receptor-binding …; assay: cell-based or functional assay; remark: listed apart in the source
[8] = biological target: T2, human TGFβ3, mature dimeric form; assay: cell-based or functional assay; remark: listed apart in the source

human TGFβ1, mature receptor-binding domain, sequence (P01137 279-390 limits assumed): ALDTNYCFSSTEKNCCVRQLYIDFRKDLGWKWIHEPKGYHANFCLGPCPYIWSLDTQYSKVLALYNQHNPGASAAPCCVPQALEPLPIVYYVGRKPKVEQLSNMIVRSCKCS

HEKBlue TGFβ blocking IC50 [1]: > 200 nM
HEKBlue TGFβ blocking IC50 [2]: 0.09 nM
HEKBlue TGFβ blocking IC50 [3]: 0.06 nM
IC50 (read off the curve) [4]: ~0.07 nM
IC50 (read off the curve) [5]: ~0.06 nM
Kd [6]: 0.0016 nM
cell-based IC50 [7]: < 0.25 nM
cell-based IC50 [8]: < 0.25 nM
B1: 4A11 (antibody, V domains shown)
VH: QSLEESGGRLVTPGTPLTLTCTVSGFSLSSYTVNWVRQAPGKGLEWIGYISYGGSAYYASWANGRFTISKTSATVDLKITSPTTEDTATYFCARHMQVGGAPTGSMAAFDPWGPGTLVTVSS
VL: AAVLTQTPSPVSAAVGGTVSISCQSSQSVYNNNYLSWFQQKPGQPPKLLIYGASTLTSGVPSRFKGSGSGTQFTLTISDVQCDDAATYYCAGGYSGSSDKYAFGGGTEVVVKG
notes: anti-TGFβ2/3, recombinant rabbit monoclonal; some paragraphs print the H/L pair as 32/33; also called Rb1.4A11; Rbt 4A11
